Source: paper PMC11321312
Positions count from the first letter of the chain named. Numbers in names are those of the source. Blank lines part the entries; values can stand above or below the binder they belong to.

Tests used:
[1] = target: JGFN4 wild-type VHH (camelid (library from B cells of llamas and alpacas)); test: crystal structure; crystals grown from the isolated (preformed) dimeric species (~12 mg/ml) with 5-fold molar excess of fentanyl; sitting drop, ambient temperature
[2] = target: JGFN4 wild-type VHH (camelid (library from B cells of llamas and alpacas)); test: crystal structure; crystals grown from the isolated monomeric species (~12 mg/ml) with 5-fold molar excess of fentanyl; sitting drop, ambient temperature
[3] = target: JGFN4 N76D VHH (camelid (library from B cells of llamas and alpacas)); test: crystal structure; crystals grown from the isolated (preformed) dimeric species (~12 mg/ml) with 5-fold molar excess of fentanyl; sitting drop, ambient temperature

- stoichiometry N [1]: 2
- stoichiometry N [2]: 2
B1: JGFN4 wild-type VHH (VHH)
VHH: QVQLVESGGGLAQAGGSLQLSCAASGSTSRVNAMGWYRQTPGKERELVAAIDRSGATVYSESVRGRFTISKNDAKNIVWLQMNNLTTEDTAVYYCRSGVLGSWGLGTQVTVSS

- stoichiometry N [3]: 2
B2: JGFN4 N76D VHH (VHH)
VHH: B1 VHH with N76D
